Test results reported in IntAct's records for PubMed 21664272.

Target: T1, rasa1_human RASA1 (UniProt P20936)
T1 sequence: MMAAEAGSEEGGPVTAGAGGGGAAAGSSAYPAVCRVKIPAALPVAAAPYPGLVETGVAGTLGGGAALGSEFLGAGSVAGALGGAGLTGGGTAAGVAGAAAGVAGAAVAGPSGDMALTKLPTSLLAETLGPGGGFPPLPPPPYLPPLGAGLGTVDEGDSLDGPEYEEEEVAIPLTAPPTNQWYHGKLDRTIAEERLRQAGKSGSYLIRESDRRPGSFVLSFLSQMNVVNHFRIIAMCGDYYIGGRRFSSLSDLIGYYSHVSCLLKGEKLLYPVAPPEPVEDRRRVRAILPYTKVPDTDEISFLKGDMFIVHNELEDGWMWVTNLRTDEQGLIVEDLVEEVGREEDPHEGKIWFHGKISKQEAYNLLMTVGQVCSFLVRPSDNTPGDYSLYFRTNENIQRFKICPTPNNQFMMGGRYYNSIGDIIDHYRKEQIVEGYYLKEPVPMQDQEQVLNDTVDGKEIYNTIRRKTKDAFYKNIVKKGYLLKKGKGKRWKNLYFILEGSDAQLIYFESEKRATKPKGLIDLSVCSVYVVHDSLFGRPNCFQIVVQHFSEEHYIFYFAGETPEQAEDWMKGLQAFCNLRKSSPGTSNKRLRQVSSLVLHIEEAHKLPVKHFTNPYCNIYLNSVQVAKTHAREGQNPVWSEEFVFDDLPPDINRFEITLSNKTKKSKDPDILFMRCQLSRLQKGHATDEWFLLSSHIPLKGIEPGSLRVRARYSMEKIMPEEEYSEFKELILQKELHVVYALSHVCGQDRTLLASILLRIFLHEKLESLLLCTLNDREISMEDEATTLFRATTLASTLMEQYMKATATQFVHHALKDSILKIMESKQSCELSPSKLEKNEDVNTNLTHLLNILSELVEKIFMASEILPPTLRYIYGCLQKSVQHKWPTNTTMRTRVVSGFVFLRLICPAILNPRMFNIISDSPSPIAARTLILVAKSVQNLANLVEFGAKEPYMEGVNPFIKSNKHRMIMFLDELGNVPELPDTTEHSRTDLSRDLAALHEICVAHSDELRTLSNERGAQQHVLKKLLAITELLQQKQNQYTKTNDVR

Substance | effect of a mutation on the interaction
SH2/SH3 adapter protein NCK1 (Homo sapiens) (from UniProt P16333) W143K;W229K;R308K | decreasing interaction
SH2/SH3 adapter protein NCK1 (Homo sapiens) (from UniProt P16333) W38K | decreasing interaction
SH2/SH3 adapter protein NCK1 (Homo sapiens) (from UniProt P16333) W38K;W39K;W143K;W229K | decreasing interaction

Next, values leading:

effect of a mutation on the interaction | Substance
decreasing interaction | SH2/SH3 adapter protein NCK1 (Homo sapiens) (from UniProt P16333) W229K
disrupting interaction | SH2/SH3 adapter protein NCK1 (Homo sapiens) (from UniProt P16333) W38K;W229K;R308K
decreasing interaction | SH2/SH3 adapter protein NCK1 (Homo sapiens) (from UniProt P16333) W38K;W143K;W229K;R308K
